Experimental findings from the DeepSol protein solubility set are described below.

This data set can be described thus: soluble on expression in E. coli; label from the status in PepcDB or PDB records.
Turning to “MGSDKIHHHHHHMNPGIEKYEIRFDFDLKDFTYTSHERIHLAGDWKDIKLDAVRLSVDKVTCNGQPMRFETGQDTVTVKGSFHDKDVIDIDFHAKVSDTLMGLYLSRTKEGTMITTQFESNGARMAFPCVDHPAYKAVFAITVVIDKDYDAISNMPPKRIEVSERKIVEFQDTPKMSTYLLYIGVGKFKYATDKYRDIDLILVSLKDIKSKYPLEIARKSIEFYESYFGIPYALPKMHLISVPEFGAGAMENWGAITFREVALMATENSGSIMKQNAAITIAHEIAHQWFGDLVTMKWWNDLWLNESFATFMSYKTVDSFSKQWDVFADFIRSETGGALRSDSLKNTHPIEVDVKDPDEISQIFDEISYGKGASILRMIEDYAGYEEFRKGISKYLNDHRYGNAEGSDLWTAIEDVSGKPVKRVMEYWIKNPGYPVVSVVKSGNKFRLTQEQFFLDGTRGQGKWPIPLTVMTKSGKKAMLMEESAEIEDMVKVNVNSSGFYRVSYDGESFETVMKNYSKLSNLDRWGLISDLYAFLISGRVSVDDYLARIKGFFEDSDHLIVEEIASQLTGLYLLKPDSNRIRETAASYLSRQVVALGDKQKGEDDKISKIRGIVTQDLAMVDDHFASDLARKFSTLAEDPDLALAKSIAAAKAYGISELASAADKYTDDEIRVRIIAAMGWCSPSDLKSVFELIDKGTIRKQDMLYVFSNMPANPKGRDFFFSNIDRIVALMEHAFEGTGYTSRILETAIPYLGLARYEDVKKKAEQIRKPSYNVGINKGLETLEIVRKLYNKL”, the “soluble on expression in E. coli” value is “not soluble”. With “MGSDKIHHHHHHMSKIILVVAAHTDDEAMGCGGTIARHIAEGDEVHLLFMTDGVGSREVLAEEVIDRSSAAQQAAKILGVSSFTNLSFPDNRMDSVALLDIVKEVEVKISEIKPEIIYTHHIGDLNIDHQVTHKAVMTACRPQPGFSVKTIYAFEVLSSTEWQTSNSALFIPNVFIDITDYLPVKMDASKAYYNEMREVPHSRSLQHIELLARHRGYTVGVHAAEAFMLVREIK”, the “soluble on expression in E. coli” value is on record as “not soluble”. Consider “MIGMDHLAIGTYEGFLIGYDIDTQPNDPKTTTGCTLRYAYAAHERSIRCIAGSFPILASASVDESIKVYQLDQLQELATLYDLQVPVNSVDIQLQGGLLSGGEDGKLVYYPYGGWSKPKYLKGHKGNVHSVALHPTGQICLSVARDKCLKLWKTNGDCVCSLELPDEAFIVKWTEDGQGWVIATQTSFSVHSLQTGLIQQWEYSTRLVCLCALTNDIFVVGGMDGHLRVGENKPIQVHKVDGGSLVKGIGVGRDGCIYSLSSKGVLEMVAPSRQLEIQNGVVKRYIE”, for which the “soluble on expression in E. coli” value was “not soluble”. As for “GAMAMRIYYIGVFRSGGEKALELSEVKDLSQFGFFERSSVGQFMTFFAETVASRTGAGQRQSIEEGNYIGHVYARSEGICGVLITDKEYPVRPAYTLLNKILDEYLVAHPKEEWADVTETNDALKMKQLDTYISKYQDPSQADA”, the entry is “soluble”; as for “MGSDKIHHHHHHMNSSQVLDVKRVLAVLEEQVFQSTGRYLTEVEKVLIKGVWDSKDYKEMASDSGYNAYYLQQKVAPPLWSMLSVIIGDGVKVTKISLKSILLKLAKSDYRKEEASRLDNDSFVGNIRIHGELPKIKSFYGRKDEINYFKKQITLFKERCIVFTGVGGIGKTLLASRLVEEITFDSLSSIYECIIWKTINHSLSIDELVIDLNKIFQVDIEASENSFIDSISLLSKQLHLHRCLLVIDGFEKLLLADDFGKRLQYEKFLLKLTEGKHESCIIITSQLPLKEFASVTTKLPIRSFKLEGLDVNAGMQILQEKGLTGQECKRLIENYSGNPSSLEALADRINRFFEGSVKTFFRYQTTMIDPQLETMLHQQFGQIGLLSNLQRQIMIYLAEEMSENSTPIQFSKLIDNLKERVDFKLSVFELITAIEVLEQRSLIEIAGKSNKREASYSLQVSIKKYILVDPLGLVHKIPDTIQTREVTLWATA”, “not soluble”. As for “DSPPSESLPSADSNRTHIVNGVGAFQSKVHPSIVTVLYFPGPVTSAISSDDQSFETSIVGHSVVIRPAPNVTAKTVGNINITTRAMNVSLTMRIAERPEDAATQLVFRALSEVEAFETRVAAEVERVRQEVEHEYERRHRNLEREVTHATEQAIARRMLMRHEGREFGAIARNEHNIIARVTRAQWIGPELYLYFEIQNRDSTPYHLAHVRLLGPTGESDHVDHLEFAGAGDVIDGSLGTVLSGQRGRGIVHVRDAARFAGKPFTFLVSEARERRAVSIGGITW”, the entry is “not soluble”; as for “MNTREVELRGHIIDSLILPRALDIIMDMGGDFQILEIDIGKRKSDPSHARILVEAETPSLLNQILDELGEIGASIAEIKEAELRRAPMDRVLPDDFYSTTNHQTFIYHGGEWVEVEGIEMDCMIVVDPESRTARCKPIREIKKGDLVVVGREGIKVVPPERPRGKQGVFEFMGSEVSSEKPLVTTIKKIASEITEIKKRGGRIGLVGGPAIVHTGSAPVIAEMIRLGFIDVLFAGNALATHDIECALYGTSLGVDIDRGEAVSRGHRHHINAINEINRAGSIRDAVEQGVLTSGIMYECVKNDVPFVLAGSIRDDGPLPDVITDVMEAQNEMRKYVQDLDMVIMIATMLHSIATGNILPSRVKTICVDINPATVTKLSDRGSSQAVSVVTDVGAFIPILLHEIKKMNGLGDLEHHHHHH”, “soluble”; as for “MSLEEPFEIPPVEDTESVAKVDVRVDGIRDDRLSENVRIYLEAMDKNEADGSERHQYLLRENISKALRVFGYYNSQVYFDLQPRSGKKDLLIASVNVGEPVRIDSTDIEISGEAAEDEEFRKLDKNVPAKGAVLEHEIYDDYKSSLEKLARQRGYFDADFPVHELQVMPSTNQGWWHLVFNSGQRYHYGDISFHGSQIREDYLRNILKIQSGDPYLINDVSGMTSDYSSTNWFQSVLVKPTLHEDSKLVDLAVLLRPRKKNSMELGIGYGSDSGPHTQIGWTRPWINSRGHSVRSNLYISSPKQNFEATYKMPLLKNPLNYYYEFSTGFEHEDDTKTDTQSTAATVAALRFWNHPTGWQYSAGLRARYDNFTQADVDEKTLLIYPTATVSRSRISGGTFADRADTISVTVDLGRKMWASDVNFFRIRANAGWIKTFATNHRFLTRGDIGYLHTDEFNRIPPALRFFAGGDRSVRGYGYKKIAPKDSRNGKLVGGSRLATGTLEYQYQVVQDWWAATFFDAGFAANRFSSDELRYGAGVGVRWASPVGPIKFDIATPVRDKDDSKNIQFYIGLGTEEGHHHHHH”, “not soluble”. The entry for “MGHHHHHHSHVVAILGMGWGAGTGLEMPSAASRGASLLNMQSLGLWTWDCLQGHWAPLIHLNSGPPSGAMERSPTWGEAAELWGSHILLPFRIRHKQTLFASLK” is “not soluble”; for “MALSILFLSIASLTLSSSLIIDHYFHLSFLRNPLKSQSGGGKMKPKVFITREIPEVGIKMLEDEFEVEVWGDEKEIPREILLKKVKEVDALVTMLSERIDKEVFENAPKLRIVANYAVGYDNIDIEEATKRGIYVTNTPDVLTDATADLAFALLLATARHVVKGDRFVRSGEWKKRGVAWHPKWFLGYDVYGKTIGIIGLGRIGQAIAKRAKGFNMRILYYSRTRKEEVERELNAEFKPLEDLLRESDFVVLAVPLTRETYHLINEERLKLMKKTAILINIARGKVVDTNALVKALKEGWIAGAGLDVFEEEPYYNEELFKLDNVVLTPHIGSASFGAREGMAELVAKNLIAFKRGEIPPTLVNREVIKIRKPGFE” it is “soluble”.

In the case of “KIQEWLGESDYSDFLSVVEAVHDSGPSFVLQAMKSLDKYDAMMCISVDSMVNRIQELIDDTMVMSTNNPWGVIPSEGGAGLIFCRRNTVETLKLKPLAQLGYIDTELNTSDRRGMYRLVQRASKKLTAFGEVYSDMTNLRAHSEDYGFALGAKAERFINPEQPLLINE”, the “soluble on expression in E. coli” value is given as “not soluble”.

As for “MPMKDISDFAANDPNKDYCVYCSRPDGEMQSFEEKKESLTKFIVKTQGADENVAWKIAENMMHKLPAWKEYFN”, the “soluble on expression in E. coli” value is “not soluble”. As for “MKVILLITIFLSFYSSAETIVVEDTLFYEVAPTSKDDLLETLNSSSPIREDGNVFHGYTKYEINWRFWWKSNNNQCAFTKVETTLKLKYTMPQLTSSKSDVNVVWSNWYPNLEKHEKGHGKLAKDTAFKIEKDLLSIGPKANCNLLEKAGNKLAYKLMATLKKANKQYDIKTNHGETQNAWLYLHL”, the “soluble on expression in E. coli” value is “not soluble”. As for “AHHHHHHGSVKVTFLGHAAFYIEGSKKILIDPFLSGNPVASAKPDDFKSVDLILVTHAHGDHLGDVGTIAKRTGAKVVAMYDLANYIAEKYKGVETIGMNYGPTKVDEVEIVQVPAWHSSSDGKYSIGNACGYIVKLDGVTIYHAGDTYVFKDMELFAELYGPIDVALLPIGGHFTMGVREAAKAVELLKPRHVIPMHYNTWPPIAADPEEFKKLVGEKAKVVILKPGESLEL”, the entry is “not soluble”; as for “MGSDKIHHHHHHMAHPFLRTIFEVVITLYMLHNLYKVLGDDEMDLEEMSSFFNKRVNEYEEHMMNNVGGANQYYIETAKLIPRGKEINILDLGCGTGLELDEIFKINNTVRVTGIDLAENMLRKIKEKHKDKLDRLTLIVGDYFSCDIGEKVFDAALSVETLHHFNHEQKIKLYKKIVRSLKDNGVYIEADYMAPNQDYEDHCFNENKRIRLELGIKDGFYHYDTPCTVENQIKMLYKSGFKSVEKVFKAENTVILLAKK”, “not soluble”; as for “MGSDKIHHHHHHMTSADNILAHASAMRQFSQFAGVAGLDLRRACPPDVYAFVEQAQDAEWLPATAHVDVLQAAAIASGRADLGVAFAMWCNIRGFGPVSLLWDHCTTVDEASRITRRYMHLESAAMRSSTDTDGHEAALRHILMVPARFGGSQFLQATLALQLRIIRMLLGEEWTPIRLELDHPAPPSYRYHQAVFRCPIEFEADRCALVFRKSDLHRPSLRGNANMVQYLERQLAHADSHWPGDLVQQIRYFVAANLTERKANLAHVSGLAGLSSQSLQRRLAERGTTFATILEEVRKQTADEYFRTARRPNLTELSHRLGYTDASAASRFLRQHMSTGARALMAQVRPGRGRPGSARALAAEA”, “not soluble”. Turning to “MSLEHPLQRFFHSMRAKRPFDWVRFQRRDLLLIDHPLCQAVFSRQGAQLLHFQPQGERPLLWCAGEWPALSSAPVRGGIPVCWPWFGSHPNGSEWPQQGWARQREWRLLDAYADESKVVVSWQLDLEDWHVRLDARLGQRLELELCSYHEEDDDCLFSFALQPYWRVGALSRVVVHGMELESARGQRGASRIPGTWIPRGAVKQVLYHPGSLVLEDGGWNRRLRIDKNVSAGSVIWHPGSRPVEQVEPGEAERFLCIGAAGYRPGGLILAPGERMRLSLAAGLQEGHHHHHH”, the “soluble on expression in E. coli” value is recorded as “soluble”. As for “MGSDKIHHHHHHEQDNSVSEKQVDVVYNDPRDPFEGFNRAMWDLNYNVLDRYIYRPVAHTYKDYVPSPVKSGLHNFVRNLEEPNALVNNTLQGKFGWAANAGGRFVVNSTIGLLGVVDVADMMGMHRKQDDFNEVLGYYGVPNGPYFMAPFFGPYVTRELASDWVDGLYFPLSELTMWQSVVKWGIKSLHVRTEAIDQERLLDNALDPYTFVKDAYLQHMDYKVYDGNVPSNQEDDELLDEYMQELE”, the entry is “not soluble”; as for “GPGSMIYSGEIENGQMHGRGCLQYPNKEKYDGDWVFGKRHGTGVYVYADGSRYEGEWVDDKVHGNGACYYTSGNVYTGEWSMGRINGRGVLEYHDGDRYEGEWKDGRMHGKGTYCYSNGDKYEGEWKEDKRHGKGVVVYAAPDGCVSEKYDGEWNEGRMQGWGKYFYADGGVYEGEWVDGRMHGRGTYVFPNGNKYEGEWVEDRKDGYGILLYTNGERYEGYWHLDKAHGKGTLTFLQGDRYVGEWHYGKKHGHGVLSYSNGDTYDGEWRDDDAWGYGVLQYANGCRYEGEWAEDRRHGKGLLVLPDGSSYEGSFAHGKKDGPGKIILKDGSMYIGTWKDGVIVGQGEFRLSENCDLSNPDY”, “soluble”. As for “MNLLVIGGHERMEKDYMVMAKKKGYKTKVYTTMSSKLNNSIGRPDAVVILTSTVSHKMSRTVESQAKKQDILIVRHKNSLEHHHHHH”, the entry is “soluble”.
